{"source": "patent US8013186B2", "about": "“Haloalkyl containing compounds as cysteine protease inhibitors” (Virobay, Inc., priority 2004, dated 2011)", "origin": "cited, not measured here", "details": "in clinical trials", "data": [{"substance": "OKT3: murine monoclonal antibody directed towards CD-3 domain of activated T-cells", "values": [{"measurement": "patients administered OKT3 who produce antibodies versus the therapy", "result": "20-40%"}]}]}
